Columns and labels:
[1] = biological target: ΔN complex (Syb49–96:SyxH3:SNAP-25) (rat) (UniProt P63045); assay: fluorescence polarisation
[2] = biological target: ΔN complex (Syb49–96:SyxH3:SNAP-25) (rat) (UniProt P63045); assay: ITC

Row | Substance | kon [1] [M⁻¹ s⁻¹] | Kd [2] [nM] | dH [2] [kcal/mol]
1 | Syb1–96 V39A, V42A, S28C, labeled (from UniProt P63045 1-96) (domain or fragment) | 263000 |  | 
2 | Syb F77A (from UniProt P63045 1-96) (domain or fragment) |  | 0.8 | -18.8

From paper PMC2819690
